Values of other authors in PMC9558565.

Target: p53p (Homo sapiens) (UniProt P04637)
Sequence (P04637 whole entry): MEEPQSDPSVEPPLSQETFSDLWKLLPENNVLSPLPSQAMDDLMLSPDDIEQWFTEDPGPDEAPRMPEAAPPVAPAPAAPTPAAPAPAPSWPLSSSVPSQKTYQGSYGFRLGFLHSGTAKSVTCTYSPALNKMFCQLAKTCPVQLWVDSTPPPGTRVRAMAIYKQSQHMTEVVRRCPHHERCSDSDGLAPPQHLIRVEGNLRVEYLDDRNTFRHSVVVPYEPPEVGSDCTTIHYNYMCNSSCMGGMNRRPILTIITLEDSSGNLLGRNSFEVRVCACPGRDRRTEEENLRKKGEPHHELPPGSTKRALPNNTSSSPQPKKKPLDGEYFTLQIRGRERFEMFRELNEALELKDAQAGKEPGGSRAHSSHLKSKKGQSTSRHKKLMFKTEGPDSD

Sequence of MDM2 (Q00987 whole entry): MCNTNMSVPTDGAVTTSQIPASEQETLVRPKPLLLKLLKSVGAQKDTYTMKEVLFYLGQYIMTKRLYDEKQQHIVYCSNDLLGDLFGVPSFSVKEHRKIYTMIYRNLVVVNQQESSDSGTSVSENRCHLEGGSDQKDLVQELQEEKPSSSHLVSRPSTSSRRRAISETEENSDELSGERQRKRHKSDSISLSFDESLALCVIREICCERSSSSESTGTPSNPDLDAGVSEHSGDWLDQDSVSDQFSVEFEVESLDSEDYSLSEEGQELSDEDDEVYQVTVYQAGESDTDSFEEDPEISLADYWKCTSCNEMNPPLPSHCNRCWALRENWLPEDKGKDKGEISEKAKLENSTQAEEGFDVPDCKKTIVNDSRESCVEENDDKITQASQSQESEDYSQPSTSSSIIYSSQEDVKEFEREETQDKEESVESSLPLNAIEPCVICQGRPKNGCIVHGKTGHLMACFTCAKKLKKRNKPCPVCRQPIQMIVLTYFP

MDM2 (from UniProt Q00987)
Kd: 0.046 µM
